The values that follow come from US7851436.

In the assay the target is integrins αVβ3 and αVβ5. In words: inhibition of Ch-1 cell adhesion to coated PIIBNP by synthetic peptide (FIG. 3C).

B1: synthetic GRGDNP peptide (peptide)
peptide: GRGDNP
As a reminder, the IC50 is the concentration at which inhibition is half-maximal. In turn, B1 came in with an IC50 of 10 µM. This lies in the double-digit micromolar range.

B2: synthetic GRADNP peptide (peptide)
peptide: GRADNP
As to B2, the IC50 was determined as 60 µM.
